Non-standard residues stand in square brackets, D forms with d. No end group written: not given here. *: point of attachment. Desaminotyrosyl = O=C(CCc1ccc(O)cc1)*; NMeY = CN[C@@H](Cc1ccc(O)cc1)C(=O)O; Nle = CCCC[C@H](N)C(=O)O; Orn = NCCC[C@H](N)C(=O)O; Abu = CC[C@H](N)C(=O)O; Aoc = NCCCCCCCC(=O)O
T1: GHRH receptor of human pituitary membranes (human, UniProt Q02643)
T1 sequence: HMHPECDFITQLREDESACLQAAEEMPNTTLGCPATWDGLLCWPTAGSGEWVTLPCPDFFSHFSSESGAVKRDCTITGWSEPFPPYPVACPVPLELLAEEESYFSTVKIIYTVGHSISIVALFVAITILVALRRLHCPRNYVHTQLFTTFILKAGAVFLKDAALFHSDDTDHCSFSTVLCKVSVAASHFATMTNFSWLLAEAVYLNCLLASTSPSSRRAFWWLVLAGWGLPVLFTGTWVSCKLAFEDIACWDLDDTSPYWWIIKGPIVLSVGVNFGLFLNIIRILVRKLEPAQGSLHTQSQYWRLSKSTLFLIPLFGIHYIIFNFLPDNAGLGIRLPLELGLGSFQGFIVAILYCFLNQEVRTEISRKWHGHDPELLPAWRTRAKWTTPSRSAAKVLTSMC


molecular target: T1, GHRH receptor of human pituitary …; assay: competition vs 125I-JV-1-42, human pituitary membranes;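 further: pituitaries used were normal human glands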
Text: Normal human pituitaries were purchased from the National Hormone and Peptide Program (A.F. Parlow, Los Angeles, County Harbor-UCLA Medical Center, Torrance, Calif.).

IC50 [nM]	relative affinity (binding potency) vs JI-38 [vs JI-38=1]	Binder
2.99	1.45	[NMeY]ADAIFTNSYR[Orn]VL[Abu]QLSAR[Orn]LLQDI[Nle]DR[Aoc]-NH2 (N-terminus assumed; SMILES CCCC[C@H](NC(=O)[C@@H](NC(=O)[C@H](CC(=O)O)NC(=O)[C@H](CCC(N)=O)NC(=O)[C@H](CC(C)C)NC(=O)[C@H](CC(C)C)NC(=O)[C@H](CCCN)NC(=O)[C@H](CCCNC(=N)N)NC(=O)[C@H](C)NC(=O)[C@H](CO)NC(=O)[C@H](CC(C)C)NC(=O)[C@H](CCC(N)=O)NC(=O)[C@H](CC)NC(=O)[C@H](CC(C)C)NC(=O)[C@@H](NC(=O)[C@H](CCCN)NC(=O)[C@H](CCCNC(=N)N)NC(=O)[C@H](Cc1ccc(O)cc1)NC(=O)[C@H](CO)NC(=O)[C@H](CC(N)=O)NC(=O)[C@@H](NC(=O)[C@H](Cc1ccccc1)NC(=O)[C@@H](NC(=O)[C@H](C)NC(=O)[C@H](CC(=O)O)NC(=O)[C@H](C)NC(=O)[C@H](Cc1ccc(O)cc1)NC)[C@@H](C)CC)[C@@H](C)O)C(C)C)[C@@H](C)CC)C(=O)N[C@@H](CC(=O)O)C(=O)N[C@@H](CCCNC(=N)N)C(=O)NCCCCCCCC(N)=O) [P-21301 [N-Me-Tyr^1, Orn^12, Abu^15, Orn^21, Nle^27, Asp^28, Amc^30]hGHRH(1-30)NH2]
3.61	1.2	[Desaminotyrosyl][dA]DAIFTNSYR[Orn]VL[Abu]QLSAR[Orn]LLQDI[Nle]DR[Aoc]-NH2 (SMILES CCCC[C@H](NC(=O)[C@@H](NC(=O)[C@H](CC(=O)O)NC(=O)[C@H](CCC(N)=O)NC(=O)[C@H](CC(C)C)NC(=O)[C@H](CC(C)C)NC(=O)[C@H](CCCN)NC(=O)[C@H](CCCNC(=N)N)NC(=O)[C@H](C)NC(=O)[C@H](CO)NC(=O)[C@H](CC(C)C)NC(=O)[C@H](CCC(N)=O)NC(=O)[C@H](CC)NC(=O)[C@H](CC(C)C)NC(=O)[C@@H](NC(=O)[C@H](CCCN)NC(=O)[C@H](CCCNC(=N)N)NC(=O)[C@H](Cc1ccc(O)cc1)NC(=O)[C@H](CO)NC(=O)[C@H](CC(N)=O)NC(=O)[C@@H](NC(=O)[C@H](Cc1ccccc1)NC(=O)[C@@H](NC(=O)[C@H](C)NC(=O)[C@H](CC(=O)O)NC(=O)[C@@H](C)NC(=O)CCc1ccc(O)cc1)[C@@H](C)CC)[C@@H](C)O)C(C)C)[C@@H](C)CC)C(=O)N[C@@H](CC(=O)O)C(=O)N[C@@H](CCCNC(=N)N)C(=O)NCCCCCCCC(N)=O) [P-21300 [Dat^1, D-Ala^2, Orn^12, Abu^15, Orn^21, Nle^27, Asp^28, Amc^30]hGHRH(1-30)NH2]
1.87	2.32	[NMeY][dA]DAIFTNSYR[Orn]VL[Abu]QLSAR[Orn]LLQDI[Nle]DR[Aoc]-NH2 (N-terminus assumed; SMILES CCCC[C@H](NC(=O)[C@@H](NC(=O)[C@H](CC(=O)O)NC(=O)[C@H](CCC(N)=O)NC(=O)[C@H](CC(C)C)NC(=O)[C@H](CC(C)C)NC(=O)[C@H](CCCN)NC(=O)[C@H](CCCNC(=N)N)NC(=O)[C@H](C)NC(=O)[C@H](CO)NC(=O)[C@H](CC(C)C)NC(=O)[C@H](CCC(N)=O)NC(=O)[C@H](CC)NC(=O)[C@H](CC(C)C)NC(=O)[C@@H](NC(=O)[C@H](CCCN)NC(=O)[C@H](CCCNC(=N)N)NC(=O)[C@H](Cc1ccc(O)cc1)NC(=O)[C@H](CO)NC(=O)[C@H](CC(N)=O)NC(=O)[C@@H](NC(=O)[C@H](Cc1ccccc1)NC(=O)[C@@H](NC(=O)[C@H](C)NC(=O)[C@H](CC(=O)O)NC(=O)[C@@H](C)NC(=O)[C@H](Cc1ccc(O)cc1)NC)[C@@H](C)CC)[C@@H](C)O)C(C)C)[C@@H](C)CC)C(=O)N[C@@H](CC(=O)O)C(=O)N[C@@H](CCCNC(=N)N)C(=O)NCCCCCCCC(N)=O) [P-21303 [N-Me-Tyr^1, D-Ala^2, Orn^12, Abu^15, Orn^21, Nle^27, Asp^28, Amc^30]hGHRH(1-30)NH2]

— patent US20180250358A1, “GHRH AGONISTS FOR THE TREATMENT OF ISCHEMIC DISORDERS” (published 2018)
